Series [1] addresses T1, HpfX (EgHpfX), 3-sulfopropionaldehyde dehydrogenase (Enterococcus gilvus, UniProt R2XKF7).
T1 construct: gene I592_01329
T1 sequence (R2XKF7 1-455): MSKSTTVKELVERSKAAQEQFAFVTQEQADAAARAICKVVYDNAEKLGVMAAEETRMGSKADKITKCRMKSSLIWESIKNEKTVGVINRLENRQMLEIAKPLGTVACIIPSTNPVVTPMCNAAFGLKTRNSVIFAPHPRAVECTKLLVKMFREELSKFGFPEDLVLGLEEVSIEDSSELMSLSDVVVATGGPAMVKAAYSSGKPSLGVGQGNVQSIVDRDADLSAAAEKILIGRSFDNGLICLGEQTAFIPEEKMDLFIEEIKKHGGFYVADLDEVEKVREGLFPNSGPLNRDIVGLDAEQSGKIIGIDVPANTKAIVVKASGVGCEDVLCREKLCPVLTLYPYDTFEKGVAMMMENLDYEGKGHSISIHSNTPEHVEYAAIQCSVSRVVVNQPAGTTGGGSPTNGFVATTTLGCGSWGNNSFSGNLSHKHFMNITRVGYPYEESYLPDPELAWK
The experiment in a line: spectrophotometric NADH consumption, A340, HpfYZ-coupled. Format: biochemical. Particulars: reduction of 3-SPC made in situ by HpfYZ; 0.4 mM NADH, 10 mM 3-SP, 2 mM ATP, 0.4 mM CoA, 10 mM MgCl2, Tris pH 7.5, RT.

In series [2] the test system is NC(=O)c1ccc[n+]([C@@H]2O[C@H](COP(=O)(O)OP(=O)(O)OC[C@H]3O[C@@H](n4cnc5c(N)ncnc54)[C@H](O)[C@@H]3O)[C@@H](O)[C@H]2O)c1. In words: purified protein. Particulars: apparent, oxidation direction, 40 mM 3-HPS, 50 mM CAPSO pH 9.5, RT.
In series [3] the test system is O=S(=O)(O)CCCO. The experiment in a line: purified protein. Particulars: apparent, oxidation direction, 4 mM NAD+, 50 mM CAPSO pH 9.5, RT.
Series [4] has as its target T1, HpfX (EgHpfX), 3-sulfopropionaldehyde dehydrogenase. In words: LC-MS of product 3-SPC, HpfD-coupled. It is filed as biochemical. The conditions noted are these: 3-SPA made in situ by HpfD from 40 mM 3-HPS; 4 mM NAD+, 0.5 mM CoA, CAPSO pH 9.5, RT.
Substrate in series [5]: CC(C)(COP(=O)(O)OP(=O)(O)OC[C@H]1O[C@@H](n2cnc3c(N)ncnc32)[C@H](O)[C@@H]1OP(=O)(O)O)[C@@H](O)C(=O)NCCC(=O)NCCS
In words: PK-LDH coupled spectrophotometric assay, A340. Particulars: apparent, 2 mM 3-SP, 2 mM ATP, 10 mM MgCl2, 50 mM KCl, Tris-HCl pH 7.5, RT. It is filed as biochemical, Enterococcus gilvus.

Substrate in series [6]: Nc1ncnc2c1ncn2[C@@H]1O[C@H](COP(=O)(O)OP(=O)(O)OP(=O)(O)O)[C@@H](O)[C@H]1O
The experiment in a line: PK-LDH coupled spectrophotometric assay, A340. Format: biochemical, Enterococcus gilvus. The conditions noted are these: apparent, 2 mM 3-SP, 0.4 mM CoA, 10 mM MgCl2, 50 mM KCl, Tris-HCl pH 7.5, RT.

Substrate in series [7]: O=C(O)CCS(=O)(=O)O
The experiment in a line: PK-LDH coupled spectrophotometric assay, A340. The conditions noted are these: apparent, 2 mM ATP, 0.4 mM CoA, 10 mM MgCl2, 50 mM KCl, Tris-HCl pH 7.5, RT. It is filed as biochemical, Enterococcus gilvus.

Turning to `NC(=O)C1=CN([C@@H]2O[C@H](COP(=O)(O)OP(=O)(O)OC[C@H]3O[C@@H](n4cnc5c(N)ncnc54)[C@H](O)[C@@H]3O)[C@@H](O)[C@H]2O)C=CC1` [NADH], the “spectrophotometric NADH consumption, A340, HpfYZ-coupled” value in series [1] was “indicating reduction of 3-SPC accompanied by the consumption of NADH”.

The term Km denotes the concentration of substrate that gives half-maximal velocity. The term kcat denotes the maximal rate divided by the concentration of active sites. In the case of “HpfD (EgHpfD), 3-sulfopropionaldehyde reductase (Enterococcus gilvus ATCC BAA-350)”, in series [2], the Km came to 640 ± 90 µM and the kcat turned out to be 20.87 ± 0.84 s⁻¹. For the same molecule, in series [3], the Km came out at 4970 ± 570 µM and the kcat was determined as 15.30 ± 0.37 s⁻¹.

As for `O=CCCS(=O)(=O)O` [3-SPA], the “LC-MS of product 3-SPC, HpfD-coupled” value in series [4] was “The ability of the HpfX to oxidize 3-SPA into 3-SPC was ascertained”.

B1: HpfYZ (EgHpfY / EgHpfZ), 3-sulfopropionate-CoA ligase (Enterococcus gilvus ATCC BAA-350) (protein)
chain 1: MDYLEIEGKAQLERFGIPINESILLTGDNIPEDIPYPCVLKGQILSGKRGKAGAVRVVKTRAELIEAKEIIEQIKINDQVMEGVIACGFLPIEEEYYLGMTLDVKNRAMIMLFTPFGGMDIEELAETDPEKLLRFDCTEGFNAEKFKKASTIFELPEKRLNLVVDIAEKLSEACFALDATTIEINPLALLKDESLMAIDAKLVIDDNALYRQGDYTILPRTVQEKSLQEIEAEQYDLTYVEVDPKGNIGTMAGGAGIGMATMDTVFHYGGRVNNFLDLGGGVTSEKTYQAMRILLENENTDYILINIFGGINNCADMAEGITRAYKESGISKTVVVKSRGFNQEQGWSMYKELGFPQAKYGTTDEAVQILLALKGAK
chain 2: MSILINQETELLIIGITGKQGRIHAKRTIESGAKLRAGVAPGKNGEMVEGIPVFESVEDARKEFPQIRAAMLLTPPRFVKDAAIQALQSGIELLVIITEFVPVLDTLEIVTKAKKLGAKVVGPNTIGVIAPGKSKLGIMPADIYGKGRIGIISRSGTLTHETASNLTFKGYGLSTCVGIGGDSIVGMDHADVLELFANDDETDAIVLIGEIGGTSEEMAAAKIKELNIQKPICAYIAGMHAPENKKMGHAGAIVSGNMGTVKSKVEALEDAGVTVCPTLGKIVEFMEKTNSQTNGKLRSLEPKVDASILQT
notes: N-terminal His6-TEV tagged HpfY co-expressed with untagged HpfZ in E. coli BL21(DE3), co-purified 1:1 (predicted heterodimer); codon-optimized genes
Regarding B1, the Km worked out at 110 ± 30 µM in series [5], 180 ± 140 µM in series [6] and 510 ± 70 µM in series [7]. For the same molecule, the kcat is 0.45 ± 0.04 s⁻¹ in series [5], 0.33 ± 0.01 s⁻¹ in series [6] and 0.38 ± 0.01 s⁻¹ in series [7].

Values taken from PMC11489063, “Study of sulfoglycolysis in Enterococcus gilvus reveals a widespread bifurcated pathway for dihydroxypropanesulfonate degradation” (iScience, 2024).
